The target in the data set is T1, PdhR-his (Escherichia coli O157:H7 (EHEC) TUV93-0?) (UniProt P0ACM1).
T1 sequence: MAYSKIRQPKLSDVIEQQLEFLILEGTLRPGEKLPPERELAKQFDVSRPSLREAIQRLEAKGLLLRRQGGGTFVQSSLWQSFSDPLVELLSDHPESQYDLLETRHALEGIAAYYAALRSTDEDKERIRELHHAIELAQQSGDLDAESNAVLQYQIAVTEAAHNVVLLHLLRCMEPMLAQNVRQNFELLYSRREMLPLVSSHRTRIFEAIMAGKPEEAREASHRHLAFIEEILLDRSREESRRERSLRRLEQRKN
Kind of data set: EMSA. A general note: In EMSA bound probe runs differently from free probe, usually more slowly.

For the sequence “GGTTCCGATAGAAAGTCCTGGAACAACCGGACCAAAAAGAAAAACCTACCGAGTTGGTAATGGTATTGTGGGACAGTCTAATATCTGGAACGAAATGATCATGAGGCGGAAAAAGGAGAGTTA (double strand) [grlA promoter probe]”, the binding result is on record as “no binding”.
For “TGTGCACAGTTTCATGATTTCAATCAAAACCTGTATGGACATAAGGTGAATACTTTGTTACTTTAGCGTCACAGACATGAAATTGGTAAGACCAATTGACTTCGGCAAGTGGCTTAAGACAGGAACTCATGGCCTACAGCAAAATCCGCCAACCAAAACTCTCCGATGTGATTGAGCAGC (double strand) [PpdhR promoter probe]”, the binding entry is reported as “binds”.

(Values after article PMC11508082.)
